Data taken from the RNAGym collection of RNA variant scans (doi:10.1073/pnas.2313332121).

B1: TPR t1 (parent)
chain: GACCAAUCUGCCCUCAGAGCUCGAGAACAUCUUCGGAUGCAGAGGAGGCAGGCUUCGGUGGCGCGAUAGCGCCAACGUCCUCAACCUCCAAUGCAUCCCACCACAUGAUGAUGCCUGAAGAGCCUUGGUUUUUUG

Variants of: B1
Test: polymerase ribozyme fitness, log enrichment relative to wild type (log ratio); higher = more active; in vitro selection for triplet polymerase activity
In short: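 Mutant libraries of each subunit of a heterodimeric triplet polymerase ribozyme were built by PCR and transcribed. Each library went through one round of in vitro selection in triplicate: annealing with biotinylated primer, partner subunit and triplets, frozen incubation at −7 °C, gel excision of extended constructs, streptavidin-bead capture and RT-PCR. Input and output libraries were Illumina-sequenced; only genotypes with ≥10 input reads and ≥1 read per output were kept. Fitness is log2(genotype enrichment/wild-type enrichment), using inverse-variance-weighted replicate averages.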

Variant | polymerase ribozyme fitness (log ratio)
GACCAAUCUGCCCUCAGAGCUCGAGAACAUCUUCGGAUGCAGAGGCGGUAGGCUUCGGUGGCGCGAUAGCGCCAACGUCCUCAACCUCCAAUGCAUCCCACCACAUGAUGAUGCCUGAAGUGCCUUGGUUUUUUG [A46C C49U A121U] | 0.936
GACCAAUCUGCCCUCAGAGCUCGAGAACAUCUUCGGAUGCAGAGUAGGCAGGCUUCGGUGGCGCGAUAACGCCAACGUCCUCAACCUCCAAUGCAUCCCACCACAUGAUGAUGCCUGAAGAGCCUUGGUUUUUUG [G45U G69A] | -4.29
GACCAAUCUGCCCUCAGAGCUCGAGAACAUCUUCGGAUGCAGAGUAGGCAGGCUUCGGUGGCGCGAUAGCGCCAACGUCCUCAACCUCCAAUGCAUCCCACCACAAGAUGAUGCCUGAAGAGCCUUGGUUUUUUG [G45U U106A] | -1.76
GACCAAUCUGCCCUCAGAGCUCGAGAACAUCUUCGGAUGCAGAGUAGGCAGGCUUCGGUGGCGCGAUAGCGCCAACGGCCUCAACCUUCAAUGCAUCCCACCACAUGAUGAUGCCUGAAGAGCCUUGGUUUUUUG [G45U U78G C88U] | -1.1
GACCAAUCUGCCCUCAGAGCUCGAGAACAUCUUCGGAUGCAGAGUAGGCAGGCUUCGGUGGCUCGAUAGCGCCAACGUCCUCAACCUCCAAUGCAUCCCACCACAUGAUGAUACCUGAAGAGCCUUGGUUUUUUG [G45U G63U G113A] | -3.01
GACCAAUCUGCCCUCAGAGCUCGAGAACAUCUUCGGAUGCAGAGUAGGCAGGCUUCGGUGGCGCGAUAGCGCCAACUUCCUCAACCUCCAAUUCAUCCCACCACAUGAUGAUGCCUGAAUAGCCUUGGUUUUUUG [G45U G77U G93U G120U] | -3.3
GACCAAUCUGCCCUCAGAGCUCGAGAACAUCUUCGGAUGCAGAGUAGGCAGGCUUCGGUGGCGCGAUAGCGCCAACGUCCUCAACCUCCAAUGCAUCCCACCACAUGAUGAAGCCUGAAGAGCCUUGGUUUUUUG [G45U U112A] | 0.359
GACCAAUCUGCCCUCAGAGCUCGAGAACAUCUUCGGAUGCAGAGUAGGCAGGCUUCGGUGGCGCGAUAGCGCCAACGUCCUCAACCUCCAAUCCAUCCCACCACAUGAUGAUGCCUGAAGAGCCUUGGUUUUUUG [G45U G93C] | -0.927
GACCAAUCUGCCCUCAGAGCUCGAGAACAUCUUCGGAUGCAGAGUAGGCAGGCUUCGGUGACGCGAUAGCGCCAACGUCCUCAACCUCCAAUGCAUCCCACCACAUGAUGAUGCCUGAAGAGCCUUGGUUUUUUG [G45U G61A] | -2.11
GACCAAUCUGCCCUCAGAGCUCGAGAACAUCUUCGGAUGCAGAGUAGGCAGGCUUCGGUGCCGCGAUAGCGCCAACGUCCUCAACCUCCAAUGCAUCCCACCACAUGAUGAUGCCUGAAGAGCCUUGGUUUUUUG [G45U G61C] | -2.72
GACCAAUCUGCCCUCAGAGCUCGAGAACAUCUUCGGAUGCAGAGUAGGCAGGCUUCGGUGGCGCGAUAGCACCAACGUCCUCAACCUCCAAUGCAUCCCACCACAUGAUGAUGCCUGAAGAGCCUUGGUUUUUUG [G45U G71A] | -2.09
GACCAAUCUGCCCUCAGAGCUCGAGAACAUCUUCGGAUGCAGAGUAGGCAGGCUUCGGGGGCGCGAUAGCGCCAACGUCCUCAACCUCCAAUGCAUCCCACCACAUGAUGAAGCCUGAAGAGCCUUGGUUUUUUG [G45U U59G U112A] | -0.539
GACCAAUCUGCCCUCAGAGCUCGAGAACAUCUUCGGAUGCAGAGUAGGCAGGCUUCGGUGGCGCGAUAGCGCCAACGUCCUCAACCUCCAAUGCAUCCCACCACAAGAUGAUGCCUGAAGAGCCUUGGCUUUUUG [G45U U106A U129C] | -1.68
GACCAAUCUGCCCUCAGAGCUCGAGAACAUCUUCGGAUGCAGAGUAGGCAGGCUUCGGUGGCACGAUAGCGCCAACGUCCUCAACCUCCAAUGCAUCCCACCACAUGAUGAUGCCUGAAGAGCCUUGGUUUUUUG [G45U G63A] | -2.32
GACCAAUCUGCCCUCAGAGCUCGAGAACAUCUUCGGAUGCAGAGUAGGCAGGCUUCGGUGGCGCGAUAGCGCCAACGUCCUCAACCUCCAAUGCAUCCCACCACAUGAUGAUGCCUGAAGAGCCUUGGUUUUUUU [G45U G135U] | -2.03
GACCAAUCUGCCCUCAGAGCUCGAGAACAUCUUCGGAUGCAGAGGCGGUAGGCUUCGGUGGCGCGAUAGCGCCAACGUCCUCUACCUCCAAUGCAUCCCACCACAUGAUGAUGCCUGAAGAGCCUUGGUUUUUUG [A46C C49U A83U] | -4.1
GACCAAUCUGCCCUCAGAGCUCGAGAACAUCUUCGGAUGCAGAGUAGGCAGGCUUCGGUGGCGCGAUAGCGCCAACGUCCUCAACCUCCAAUGCAUCCCACCACAUGAUUAUGCCUGAAGAGCCUUGGUUUUUUG [G45U G110U] | -2.75
GACCAAUCUGCCCUCAGAGCUCGAGAACAUCUUCGGAUGCAGAGGCGGCAGGAUUCGGUGGCGCGAUAGCGCCAACUUCCUCAACCUCCAAUGCAUCCCACCACAUGAUGAUGCCUGAAGAGCCUUGGUUUUUUG [A46C C53A G77U] | -0.585
GACCAAUCUGCCCUCAGAGCUCGAGAACAUCUUCGGAUGCAGAGGCGGCAGGCUUCGGUGGCGCGAUAGCGCCAACGUCCUCAACCUCCAAUGCAUCCCUCCACAUGAUGAUGCCUGAAGAGCCUUGGUUGUUUG [A46C A100U U131G] | -1.22
GACCAAUCUGCCCUCAGAGCUCGAGAACAUCUUCGGAUGCAGAGUAGGCAGGCUUCGGUGGCGCGAUAGCGCCAACGUCCUCAACCUCCAAUUCAUCCCCCCAAAUGAUGAUGCCUGAAGAGCCUUGGUUUUUUG [G45U G93U A100C C104A] | -6.03
GACCAAUCUGCCCUCAGAGCUCGAGAACAUCUUCGGAUGCAGAGUAGGCAGGCUUCGGUGGCACGAUAGCGCCAACGGCCUCAACCUCCAAUGCAUCCCACCACAUGAUGAUGCCUGAACAGCCUUGGUUUUUUG [G45U G63A U78G G120C] | -1.71
